Target: HBV envelope proteins (HBs; L, M and S forms) on HBV virions and subviral particles (hepatitis B virus) (UniProt P03138)
Test: co-IP; 50 µg apoE mAb23 or anti-HBs coupled to protein G agarose, mixed with 10 µL CsCl-purified HBV (fraction 7) at 4 °C overnight; HBcAg detected by WB and HBV DNA by qPCR (input = 100%); normal mouse IgG as control

HBV core protein (from UniProt P03146 1-183) (natural protein)
percent of HBV precipitated through HBs (HBV DNA by qPCR): > 95%
